Biological target: T1, neonatal NET-Inhibitory Factor (nNIF)
T1 chain: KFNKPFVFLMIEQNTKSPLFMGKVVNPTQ

B1: neutrophil elastase (NE) (protein)
chain: IVGGRRARPHAWPFMVSLQLRGGHFCGATLIAPNFVMSAAHCVANVNVRAVRVVLGAHNLSRREPTRQVFAVQRIFENGYDPVNLLNDIVILQLNGSATINANVQVAQLPAQGRRLGNGVQCLAMGWGLLGRNRGIASVLQELNVTVVTSLCRRSNVCTLVRGRQAGVCFGDSGSPLVCNGLIHGIASFVRGGCASGLYPDAFAPVAQFVNWIDSIIQ
NE enzyme activity in vitro (cleavage of (MeOSuc)-AAPV-(pNA)): neither nNIF nor CRISPP inhibited NE activity
